Results reported in the supplement of paper PMC11246515.
± gives the standard deviation of the averaged measurements.

Experiment: total protein half-life in vivo (active degradation + dilution); higher = more stable protein
[1] = E. coli NCM3722 delta-hslV, growth: N-lim chemostat, doubling time 6 h
[2] = wild type E. coli NCM3722, growth: C-lim chemostat, doubling time 3 h
[3] = E. coli NCM3722 delta-clpP delta-lon delta-hslV, growth: N-lim chemostat, doubling time 6 h
[4] = E. coli NCM3722 delta-lon, growth: N-lim chemostat, doubling time 6 h
[5] = E. coli NCM3722 delta-smpB, growth: N-lim chemostat, doubling time 6 h
[6] = wild type E. coli NCM3722, growth: C-lim chemostat, doubling time 6 h
[7] = wild type E. coli NCM3722, growth: C-lim chemostat, doubling time 12 h
[8] = wild type E. coli NCM3722, growth: N-lim chemostat, doubling time 6 h
[9] = wild type E. coli NCM3722, growth: N-lim chemostat, doubling time 12 h
[10] = wild type E. coli NCM3722, growth: P-lim chemostat, doubling time 6 h
[11] = wild type E. coli NCM3722, growth: P-lim chemostat, doubling time 12 h
[12] = E. coli NCM3722 delta-clpP, growth: N-lim chemostat, doubling time 6 h

For “MNKTAIALLALLASSASLAATPWQKITQPVPGSAQSIGSFSNGCIVGADTLPIQSEHYQVMRTDQRRYFGHPDLVMFIQRLSSQVSNLGMGTVLIGDMGMPAGGRFNGGHASHQTGLDVDIFLQLPKTRWTSAQLLRPQALDLVSRDGKHVVSTLWKPEIFSLIKLAAQDKDVTRIFVNPAIKQQLCLDAGTDRDWLRKVRPWFQHRAHMHVRLRCPADSLECEDQPLPPSGDGCGAELQSWFEPPKPGTTKPEKKTPPPLPPSCQALLDEHVI [P0C0T5]”, which “total protein half-life in vivo” value [1] is on record?
Its value is 0.831 h.

What about the “total protein half-life in vivo” value [2] of the same sequence?
The value was 0.792 h.

With “MTDSELMQLSEQVGQALKARGATVTTAESCTGGWVAKVITDIAGSSAWFERGFVTYSNEAKAQMIGVREETLAQHGAVSEPVVVEMAIGALKAARADYAVSISGIAGPDGGSEEKPVGTVWFAFATARGEGITRRECFSGDRDAVRRQATAYALQTLWQQFLQNT [P0A6G3]” as the sequence, how does the “total protein half-life in vivo” value [3] read?
The value was 6 ± 0.73 h.

And the “total protein half-life in vivo” value [1]?
Its value is 4.97 ± 0.2 h.

What about the “total protein half-life in vivo” value [4] of the same sequence?
The value was 5.11 ± 0.27 h.

And the “total protein half-life in vivo” value [5]?
The value was 4.06 ± 0.093 h.

And the “total protein half-life in vivo” value [6]?
The value was 5.59 ± 0.56 h.

What about the “total protein half-life in vivo” value [7] of the same sequence?
Its value is 11 ± 1.9 h.

And the “total protein half-life in vivo” value [8]?
The value was 4.67 ± 0.057 h.

What about the “total protein half-life in vivo” value [9] of the same sequence?
Its value is 7.78 ± 0.54 h.

And the “total protein half-life in vivo” value [10]?
Its value is 5.897 ± 0.055 h.

And the “total protein half-life in vivo” value [11]?
The value was 11.7 ± 0.88 h.

For “MTQTLSQLENSGAFIERHIGPDAAQQQEMLNAVGAQSLNALTGQIVPKDIQLATPPQVGAPATEYAALAELKAIASRNKRFTSYIGMGYTAVQLPPVILRNMLENPGWYTAYTPYQPEVSQGRLEALLNFQQVTLDLTGLDMASASLLDEATAAAEAMAMAKRVSKLKNANRFFVASDVHPQTLDVVRTRAETFGFEVIVDDAQKVLDHQDVFGVLLQQVGTTGEIHDYTALISELKSRKIVVSVAADIMALVLLTAPGKQGADIVFGSAQRFGVPMGYGGPHAAFFAAKDEYKRSMPGRIIGVSKDAAGNTALRMAMQTREQHIRREKANSNICTSQVLLANIASLYAVYHGPVGLKRIANRIHRLTDILAAGLQQKGLKLRHAHYFDTLCVEVADKAGVLTRAEAAEINLRSDILNAVGITLDETTTRENVMQLFNVLLGDNHGLDIDTLDKDVAHDSRSIQPAMLRDDEILTHPVFNRYHSETEMMRYMHSLERKDLALNQAMIPLGSCTMKLNAAAEMIPITWPEFAELHPFCPPEQAEGYQQMIAQLADWLVKLTGYDAVCMQPNSGAQGEYAGLLAIRHYHESRNEGHRDICLIPASAHGTNPASAHMAGMQVVVVACDKNGNIDLTDLRAKAEQAGDNLSCIMVTYPSTHGVYEETIREVCEVVHQFGGQVYLDGANMNAQVGITSPGFIGADVSHLNLHKTFCIPHGGGGPGMGPIGVKAHLAPFVPGHSVVQIEGMLTRQGAVSAAPFGSASILPISWMYIRMMGAEGLKKASQVAILNANYIASRLQDAFPVLYTGRDGRVAHECILDIRPLKEETGISELDIAKRLIDYGFHAPTMSFPVAGTLMVEPTESESKVELDRFIDAMLAIRAEIDQVKAGVWPLEDNPLVNAPHIQSELVAEWAHPYSREVAVFPAGVADKYWPTVKRLDDVYGDRNLFCSCVPISEYQ”, which “total protein half-life in vivo” value [3] is on record?
The value was 4.44 ± 0.46 h.

What about the “total protein half-life in vivo” value [12] of the same sequence?
Its value is 3.621 ± 0.013 h.

And the “total protein half-life in vivo” value [1]?
Its value is 4.09 ± 0.11 h.

What about the “total protein half-life in vivo” value [4] of the same sequence?
Its value is 4 ± 0.3 h.

And the “total protein half-life in vivo” value [5]?
The value was 3.81 ± 0.18 h.

What about the “total protein half-life in vivo” value [2] of the same sequence?
The value was 3.022 ± 0.029 h.

And the “total protein half-life in vivo” value [6]?
Its value is 4.95 ± 0.14 h.

And the “total protein half-life in vivo” value [7]?
The value was 8.75 ± 0.28 h.

What about the “total protein half-life in vivo” value [8] of the same sequence?
Its value is 4.02 ± 0.13 h.

What about the “total protein half-life in vivo” value [9] of the same sequence?
The value was 6.79 ± 0.18 h.

And the “total protein half-life in vivo” value [10]?
The value was 6.117 ± 0.035 h.

What about the “total protein half-life in vivo” value [11] of the same sequence?
Its value is 11 ± 0.55 h.

What does the source list for “MNMLEKIQSQLEHLSKSERKVAEVILASPDNAIHSSIAAMALEANVSEPTVNRFCRSMDTRGFPDFKLHLAQSLANGTPYVNRNVNEDDSVESYTGKIFESAMATLDHVRHSLDKSAINRAVDLLTQAKKIAFFGLGSSAAVAHDAMNKFFRFNVPVVYSDDIVLQRMSCMNCSDGDVVVLISHTGRTKNLVELAQLARENDAMVIALTSAGTPLAREATLAITLDVPEDTDIYMPMVSRLAQLTVIDVLATGFTLRRGAKFRDNLKRVKEALKESRFDKQLLNLSDDR”?
total protein half-life in vivo [3]: 6.3 ± 1.1 h; total protein half-life in vivo [12]: 4.86 ± 0.47 h; total protein half-life in vivo [1]: 3.12 ± 0.53 h; total protein half-life in vivo [4]: 3.65 ± 0.91 h; total protein half-life in vivo [5]: 3.23 ± 0.018 h; total protein half-life in vivo [2]: 2.26 ± 0.21 h; total protein half-life in vivo [6]: 4.52 ± 1.7 h; total protein half-life in vivo [7]: 5.45 ± 0.083 h; total protein half-life in vivo [8]: 3.77 ± 0.28 h; total protein half-life in vivo [9]: 4.38 ± 0.15 h; total protein half-life in vivo [10]: 2 ± 0.28 h; total protein half-life in vivo [11]: 4.1 ± 1.5 h

What does the source list for “MRLLHTMLRVGDLQRSIDFYTKVLGMKLLRTSENPEYKYSLAFVGYGPETEEAVIELTYNWGVDKYELGTAYGHIALSVDNAAEACEKIRQNGGNVTREAGPVKGGTTVIAFVEDPDGYKIELIEEKDAGRGLGN [P0AC81]”?
total protein half-life in vivo [3]: 5.13 ± 0.38 h; total protein half-life in vivo [12]: 4.5 ± 0.53 h; total protein half-life in vivo [1]: 4.72 ± 0.37 h; total protein half-life in vivo [4]: 5 ± 0.3 h; total protein half-life in vivo [5]: 4.3 ± 0.39 h; total protein half-life in vivo [2]: 3.48 ± 0.63 h; total protein half-life in vivo [6]: 5.44 ± 0.1 h; total protein half-life in vivo [7]: 8.9 ± 0.29 h; total protein half-life in vivo [8]: 4.38 ± 0.4 h; total protein half-life in vivo [9]: 8.01 ± 1 h; total protein half-life in vivo [10]: 5.41 ± 0.27 h; total protein half-life in vivo [11]: 11.6 ± 0.91 h

With “MVDTTQTTTEKKLTQSDIRGVFLRSNLFQGSWNFERMQALGFCFSMVPAIRRLYPENNEARKQAIRRHLEFFNTQPFVAAPILGVTLALEEQRANGAEIDDGAINGIKVGLMGPLAGVGDPIFWGTVRPVFAALGAGIAMSGSLLGPLLFFILFNLVRLATRYYGVAYGYSKGIDIVKDMGGGFLQKLTEGASILGLFVMGALVNKWTHVNIPLVVSRITDQTGKEHVTTVQTILDQLMPGLVPLLLTFACMWLLRKKVNPLWIIVGFFVIGIAGYACGLLGL” as the sequence, how does the “total protein half-life in vivo” value [3] read?
The value was 6.27 ± 0.37 h.

What about the “total protein half-life in vivo” value [12] of the same sequence?
The value was 6.2 ± 0.14 h.

What about the “total protein half-life in vivo” value [1] of the same sequence?
Its value is 5.93 ± 0.077 h.

What about the “total protein half-life in vivo” value [4] of the same sequence?
The value was 6.13 ± 0.11 h.

And the “total protein half-life in vivo” value [5]?
The value was 6.28 ± 0.28 h.

And the “total protein half-life in vivo” value [2]?
The value was 3.168 ± 0.014 h.

And the “total protein half-life in vivo” value [6]?
Its value is 6.21 ± 0.26 h.

What about the “total protein half-life in vivo” value [7] of the same sequence?
Its value is 13.8 ± 2.9 h.

What about the “total protein half-life in vivo” value [8] of the same sequence?
Its value is 6.51 ± 0.75 h.

And the “total protein half-life in vivo” value [9]?
The value was 12.8 ± 1.1 h.

And the “total protein half-life in vivo” value [10]?
Its value is 6.24 ± 0.064 h.

And the “total protein half-life in vivo” value [11]?
The value was 13.56 ± 0.072 h.

Which “total protein half-life in vivo” value [3] does the source give for “MGAYLIRRLLLVIPTLWAIITINFFIVQIAPGGPVDQAIAAIEFGNAGVLPGAGGEGVRASHAQTGVGNISDSNYRGGRGLDPEVIAEITHRYGFDKPIHERYFKMLWDYIRFDFGDSLFRSASVLTLIKDSLPVSITLGLWSTLIIYLVSIPLGIRKAVYNGSRFDVWSSAFIIIGYAIPAFLFAILLIVFFAGGSYFDLFPLRGLVSANFDSLPWYQKITDYLWHITLPVLATVIGGFAALTMLTKNSFLDEVRKQYVVTARAKGVSEKNILWKHVFRNAMLLVIAGFPATFISMFFTGSLLIEVMFSLNGLGLLGYEATVSRDYPVMFGTLYIFTLIGLLLNIVSDISYTLVDPRIDFEGR [P0AFU0]” here?
Its value is 7.09 ± 0.14 h.

What about the “total protein half-life in vivo” value [12] of the same sequence?
Its value is 5.97 h.

And the “total protein half-life in vivo” value [1]?
Its value is 6.39 ± 0.7 h.

And the “total protein half-life in vivo” value [4]?
Its value is 5.52 ± 0.49 h.

And the “total protein half-life in vivo” value [5]?
The value was 5.85 ± 0.32 h.

What about the “total protein half-life in vivo” value [2] of the same sequence?
The value was 3.47 ± 0.61 h.

What about the “total protein half-life in vivo” value [6] of the same sequence?
Its value is 5.83 ± 1.1 h.

What about the “total protein half-life in vivo” value [7] of the same sequence?
The value was 13.9 ± 1.7 h.

What about the “total protein half-life in vivo” value [8] of the same sequence?
The value was 5.33 h.

What about the “total protein half-life in vivo” value [9] of the same sequence?
The value was 11.8 ± 1.6 h.

What about the “total protein half-life in vivo” value [10] of the same sequence?
Its value is 6.2 h.

And the “total protein half-life in vivo” value [11]?
Its value is 12.4 ± 0.79 h.

For “MVKSTPCITIDFMNMSQLTERTFTPSESLSSLSLFLSLARGQCRPGKFWHRRSFRQKFLLRSLIMPRLSVEWMNELSHWPNLNVLLTRQPRLPVRLHRPYLAANLSRKQLLEALRYHYALLRECMSAEEFSLYLNTPGLQLAKLEGKNGEQFTLELTMMISMDKEGDSTILFRNSEGIPLAEITFTLCEYQGKRTMFIGGLQGAKWEIPHQEIQNATKACHGLFPKRLVMEAACLFAQRLQVEQIIAVSNETHIYRSLRYRDKEGKIHADYNAFWESVGGVCDAERHYRLPAQIARKEIAEIASKKRAEYRRRYEMLDAIQPQMATMFRG”, which “total protein half-life in vivo” value [3] is on record?
The value was 3.06 ± 0.041 h.

And the “total protein half-life in vivo” value [1]?
Its value is 0.723 h.

And the “total protein half-life in vivo” value [4]?
Its value is 1.38 ± 0.35 h.

And the “total protein half-life in vivo” value [5]?
Its value is 0.646 ± 0.039 h.

What about the “total protein half-life in vivo” value [2] of the same sequence?
Its value is 0.953 ± 0.067 h.

What about the “total protein half-life in vivo” value [6] of the same sequence?
The value was 0.7307 ± 0.0013 h.

What about the “total protein half-life in vivo” value [7] of the same sequence?
The value was 1.31 h.

And the “total protein half-life in vivo” value [8]?
The value was 1.16 ± 0.38 h.

And the “total protein half-life in vivo” value [9]?
The value was 1.2 ± 0.25 h.

What about the “total protein half-life in vivo” value [11] of the same sequence?
The value was 2.33 h.
